Assay: label from the status in PepcDB records

Row | Sequence | protein production
1 | MFGEQLLKNPLIEFCDSVCRGCGQVMFQNNTVTGLLFFAGIFYNSTTLGVCAVLGTAASTLTAQLLGVDKPLVRAGLFGFNGTLAGIALPFFFNYEPAMLGYVALNGAFTTIIMASLLNFLGKWGVPALTAPFVLATWLLMFGVYKLSLFHPGALIAPALPSVAGLADMGTVTGRTFMEGLFKGVGEVMFQDNIVTGVIFVVAILVNSRISALFAVIGSLVGLCTALIMHSPETPVRLGLYGFNSVLCGIAMGGIFFYLNIRTFLYALGCMVLGAIATGAFSVLLSPIGMPALTWPFIVVTWLFLFAGSMFRNIAQVPTEKAGTPEDNLRSLAIGSR | not failed
2 | MSKSEEKQELPLETSPYTKYEDIEDYKKNAYGTSGHQDVKPGHGGGTTDAPTPSGDAAPSAIDSANQKAKK | failed
3 | MFKKWLTWPVFYELTEIYTAPLNIMWFVLGSAIAQYHLGTVNWLNVTLCLVSVFIFDLAVNVSDNYYDYRHARDREGYAQKTNPIGRLQLPVAGVGRLALGLYLISLIPGIWLVMRTGWLVLVLGLVGYVIGIFYTAGPYPINATPLCETVVALAIAFLIELTCVVVSTYGQHPLTWSIVGTTFLLCLPLTLIFFCLQLANNTADRDEDILNHRYTLAYYLGKPGSVRLIQAFLVIGGIWPLVNVLLGLAPVVTIWVVLLLPIMWQGMRPFFEVQDKKKTFITTVKSASLFFILYPVLFVLGTWL | failed
4 | MAAALPRTLGELQLYRILQKANLLSYFDAFIQQGGDDVQQLCEAGEEEFLEIMALVGMASKPLHVRRLQKALRDWVTNPGLFNQPLTSLPVSSIPIYKLPEGSPTWLGISCSSYERSSNAREPHLKIPKCAATTCVQSLGQGKSDVVGSLALQSVGESRLWQGHHATESEHSLSPADLGSPASPKESSEALDAAAALSVAECVERMAPTLPKSDLNEVKELLKTNKKLAKMIGHIFEMNDDDPHKEEEIRKYSAIYGRFDSKRKDGKHLTLHELTVNEAAAQLCVKDNALLTRRDELFALARQISREVTYKYTYRTTKSKCGERDELSPKRIKVEDGFPDFQDSVQTLFQQARAKSEELAALSSQQPEKVMAKQMEFLCNQAGYERLQHAERRLSAGLYRQSSEEHSPNGLTSDNSDGQGERPLNLRMPNLQNRQPHHFVVDGELSRLYPSEAKSHSSESLGILKDYPHSAFTLEKKVIKTEPEDSR | not failed
5 | MRPVGSKYLLEEPLGRGATGTVWRARQRETAGAEAAVAGQPGETVAIKVLKEELASDADIVMRFLRERSVLLRLTHPNIVRVRDLVVEGELLALVMDLIDGPDLHRYLRENGPLTPVAAALLTAQIADALAASHADGVVHRDLKPANVLLKQTGGEMHPMLTDFGIARLADSPGLTRTHEFVGTPAYVAPESAEGRPQTSAVDVYGAGILLYELVTGRPPFGGGSALEVLHQHLSAEPRRPSTVPDPLWTVIERCLRKNPDDRPSAENLARGLRVVAEGIGVHANSAQIGAAENVGALLAPDPAPAQVPGAPDAAYDPNGATSVLPHTSGPAGAADPTAVLPSTGAPDPTAVMPPVPPGQPGAPGQGGPEDPHPWQNQLRAARDRNEQTQVQYLDPNQDPLRRRPQRQVSRPPQQPRQAPQGPPPQQPGYGYPQQQQPQRYATPQPQQPQRYAPPPAPEPQQPRREPRPPRQRSANPMRIPGLGCLKGCLVTVVVLFVAGWLVWELSPLQEWIGTGKGYWDQLTDWFTTVTDWIGDLGGSGGG | failed
6 | MAESTDQTEQLRELAEIGLEGYAPYLMNRIMGRYNANLRKEMTALGLSTAKMRALAILSAKDGLPIGTLGIFAVVEQSTLSRALDGLQADGLVRREVDSDDQRSSRVYLTPAGRAVYDRLWPHMRASHDRMFQGITPQERQAFLATLNKMLANIRVHEI | not failed
7 | MTREIIPILPEAPVETARSGNALPLLREIAEHLHHLLETGEASTIDLSALPLTPGDLEWLRAELGGGEVSVTLHADGASTLDETAFPGVWWIIHRNAQGAVTTQFIEVAFVPELVKSPRADVAAARAALVLRMADL | not failed
8 | MPTPRPEPAAPPGNNQAGPPAGGPIISPTDLIAIQPPRAVAGDFVPDEVLVTVDGDAGAVQQIAASFGLEVRSQRQSRLLGTTLVRFGIPDGRPVGVVLAQLAADGRTQRREPNHIYSLQQAAGIVNYAFDRIALDAKQASGENIRVAVIDTGIDDTNPALAGVIAAQFDAMPGVPVEKRDHGTSIDGLIAGVGALEGMAPGARIYHARAFEGGKSTMDVILSALDWAAEQNVSIINMSFVGPKNDLLGAACRNARALGMVLVAAAGNNGPKAPYGYPAAFDGVIAVTATDAKDALMPQANRGAYVFISAPGVEMVAPSGAGSDVVTGTSFAAAIVSGAIANLLHASPGRTADDIEKALAATAKDLGPKGRDNDFGYGLLDIKAAEAAKE | failed
9 | MDGSNVTSFVVEEPTNISTGRNASVGNAHRQIPIVHWVIMSISPVGFVENGILLWFLCFRMRRNPFTVYITHLSIADISLLFCIFILSIDYALDYELSSGHYYTIVTLSVTFLFGYNTGLYLLTAISVERCLSVLYPIWYRCHRPKYQSALVCALLWALSCLVTTMEYVMCIDREEESHSRNDCRAVIIFIAILSFLVFTPLMLVSSTILVVKIRKNTWASHSSKLYIVIMVTIIIFLIFAMPMRLLYLLYYEYWSTFGNLHHISLLFSTINSSANPFIYFFVGSSKKKRFKESLKVVLTRAFKDEMQPRRQKDNCNTVTVETVV | failed
10 | MKQIVAGIVAHVDAGKTTLSEALLYRTGEIRKLGRVDHGDAFLDTNSLEKARGITIFAHQALVEHGDLRLTLLDTPGHVDFAAETERVLRVLDYAILVVSGTDGVQGHTETLWRLLARYGVPTFIFVNKCDAAGFAREAILAQLRKRLSDAIYPLPAMEQFTEGSAVPLDAFAEDIATLDEEAMNDYLEHGVLSVGRLRSMIAVRELFPVYFGSALKLEGVEEFLDGLETFTREREWPAAFAARVFKIAHDGQHNRMTWLRVTGGALKAKEIVSSSSCAAASTPSPAQEDDGMAWSEKVDQVRIYNGAKFETVTEVPAGSVCAVTGLTRTFPGEGLGAEPDAESPSLQPVLTYTVLPAGAESDTAGTSGAAKRGGTGHDSVNRDDAEHDAAKSETGRNEENDTAGQDAETDNSSPALPQFDDLTLHKVITALRELEDEDPLLHVVWVERLAEIHVQLMGTVQLEIIQQTLHDRFGLDVSFGPGSILYRETITAPVEGAGHFEPLRHYAEAHILLEPGEPGSGVTVGSALSENDLDRNWQRLILTHLTEREHLGVLVGAPLTDIKMTLVAGRAHLKHTEGGDFRQATYRAIRQGLMEARAGVSGRPETPVESRPDTTGEGNCRLLEPWYRFRLEVPADMIGRAMSDIQRMAGTFESPVTDGEYAVIEGEAPVSEMRDYAMDVNQYTHGHGHFSATFGGYKPCHDAKQVIAAAAYDPEADLDNTPDSVFCAHGAGYPVKWYKVPEFAHVDYVM | failed
11 | MSQKRLSRVIYPGTFDPITNGHLDLIERAAQMFDEVIIAVAASPSKNTLFTLEERVEFARQVTSHLDNVSAKGFSGLLVDFAKAEKANVLIRGLRTTVDFEYEFGLTNMYRRLMPGLESVFLTPAEEHAFISSTLVREVAIHGGNVDEFVPAIVANALHQKKKI | failed
12 | MVNGSPHEKGCTYTALTEVAKTLNEEGIDTEIFWIGKKPLTGCTACKSCTKTGRCAFNDRANDFLDIAKGADGFIFGSPVHYASATGAITSFMDCVFYSDLLGGRQSFYLKPAATVISARRAGTTTTFDQLNKYFTLSEMPVISSRYWNMVHGAKPEDVKKDLEGLQIMRVLARNMAWFLKCKEAGMKAGVPLPVKEERMSTNFIRE | failed
13 | MRISAWLLCSLSFIAPLSWAESSPADIAAQKQQQILFFNHDDRDIVPDTAVWPWQAIGQLETASGNLCTATLISPHLALTAGHCVVTPPKGEIDNPVALRFLATENGWRYETTEIEALANKTLAKKLKADGEGWIVPPSAAPLDYALIRLKQTPPGIRPLPLWQGSRQELMQALKDNGQRVTQAGYPEDHQETLYRHQDCLITGWVHAAVMAHQCDTLPGDSGSPLMLNSAAGWVLMGIQSSAPDASERDRADNRAVSVTAIRQQLETLAKLSSPKPGSPKLSPK | failed
14 | MFLGEDYLLTNRAAVRLFNEVKDLPIVDPHNHLDAKDIVENKPWNDIWEVEGATDHYVWELMRRCGVSEEYITGSRSNKEKWLALAKVFPRFVGNPTYEWIHLDLWRRFNIKKVISEETAEEIWEETKKKLPEMTPQKLLRDMKVEILCTTDDPVSTLEHHRKAKEAVEGVTILPTWRPDRAMNVDKEGWREYVEKMGERYGEDTSTLDGFLNALWKSHEHFKEHGCVASDHALLEPSVYYVDENRARAVHEKAFSGEKLTQDEINDYKAFMMVQFGKMNQETNWVTQLHIGALRDYRDSLFKTLGPDSGGDISTNFLRIAEGLRYFLNEFDGKLKIVLYVLDPTHLPTISTIARAFPNVYVGAPWWFNDSPFGMEMHLKYLASVDLLYNLAGMVTDSRKLLSFGSRTEMFRRVLSNVVGEMVEKGQIPIKEARELVKHVSYDGPKALFFG | not failed
15 | MDTQNLPDQIIPIFMSFDKNYALGASVSLYSLLSHASRHTSMIDFSPLNQSNKLLGANIVYKIHCLVKGVTLEQQNKLLKTIAPFKKFASLEFIHINSLDHSIESYLNKSCSKRYGGLLVLCRLLLASLFPNYSKIISIDADTVFLGDVASAYFALDNDPTKSLGMVRDTFSHLSFEAFCDFCKRACKNFKIDFSRFSPDELKRIHQGFNMGFLVAHLDRWRQDGFEKTALEFLKTRGKDLFYPEQCLVNMVFWERILELPIYYNCYSDFFKEHYPKNIIMLHFIKYKPWRSVSSLNGRLICYEAEASFWLANLFHTPFKNDFFKERLEMAKDQQMQSFKTHIRSQTIRNYLGFRVKNILKKVFKLSLEHHHHHH | not failed
16 | MRFRYAMVCSSNQNRSMEAHALLKRQGLDVASYGTGSHVKLPGPSLREPNVYDFGTPYKQMFDELRRKDPELYKRNGILQMIKRNLSVKLAPQRWQDNAGDGVFDVVMTFEEKVFDSVLEDLNNREQSLTKTILVMNLEVKDNHEEAAIGGRLALELCQEIEGNETWEDTIDDIVAGFEKQHRRKLVYSISFY | failed
17 | MQGVLLALVPMFAWGSIGFVANKFGGDAKQQTLGMTLGAFVFALIVFLFRMPTLTWQIFLIGFIGGLLWAIGQFGQFNSMKYMGVSVASPLSSGSQLVIGGLIGVFAFHEWTKQIQFILGFIAMAVLVVGFYFSAKRDPENAVVEEGRNYTKGLTALTYSTLGYVIYVILFNNLAVLWFNVHFDTLTIILPMSVGMIFGALVMGRFKIKMEKYVYQNMIVGAMWGVGNIFMLMAASAAGNAIAFSFSQLGVIVSTIGGILFLGEKKTKKELVYVGIGIVLFVTGAILLAIVKSKG | failed
18 | MPSIISDNPKNWSEEIKNYLCRSSPERYEKMATNNAIEPYISKAISWGYAEWKNRKTLLDDIETEMLRLATLPDLSDFNDNEIYSSKKNYLSKEILENYLIKASPENFNTVFRQPGWKSHVNFLIEKGNRELERQIINGNGVENSVDTVCAELAKLMNDFENSFFDEIYGNSTPRYLLPNLFEKAIAEYKLLATIKERTRFIEAFIEIVMFDWQFSGTLDSDLFKNAYSKEVLYYYGIGARLFVLGEFKEAQEYFKKIINIEPKPIDYLMLSKTYRALNEKVETFNTIKDGLTHFPNDFLLTLALSGTLYWMGETKLANETLEPVKKDFNTMYKSEIEGAKKLAVEISEAIKCDKIYRDQKNDIYDDKYTKKAWYQYWYHYNCFRPTQHPEAYMIDYIPRYLTSIAKDATITLKGVLDFGTLCAEPLYRFAKNNPEIQCVGIDRQDLVKELNDKAYSLNNLRFEAGDIFEYLEHFALLVPNHRMLFHCRTAVLCYPNFLLKLYKKCAELGIEYICLMESNSLSRDTLTFYNYGEMPNISIARRGSLINHDYFLLLEQSGYEIVKKDFHLAPHLLEDYAALIGSNTTLVAQLKLLTQSQ | failed
19 | MSVEIKRVDKHHCLDLVGIFIELERYYFGDKAASEQDLANYLSHQVFSEHSGVKVIAAVEHDKVLGFATYTIMFPAPKLSGQMYMKDLFVSSSARGKGIGLQLMKHLATIAITHNCQRLDWTAESTNPTAGKFYKSIGASLIREKEYYRFEGNGLNKLAKSL | not failed
